Reference: PMC8452626

Biological target: Rabbit skeletal actin (unoxidized) (rabbit) (UniProt P68135)
Assay: other fluorescence titration; profilin stock titrated into 0.15 uM actin; quenching of the intrinsic tryptophan fluorescence of actin, excitation 295 nm, emission 330 nm; 5 mM PIPES pH 7, 0.2 mM CaCl2, 0.2 mM ATP, 0.5 mM DTT (G-buffer conditions)

Substance: human profilin-1 (from UniProt P07737 1-140) (natural protein; other documents disagree on this pair)
- Kd: 500 nM
